# Test results published in US6750197B1, “Activators of endothelial nitric oxide synthase” (Rensselaer Polytechnic Institute, priority 1996, dated 2004).
# Key:
# NNOS = NNOS (Rattus norvegicus, UniProt P29476); assay: CAM binding: radiolabeled CAM trapped on a membrane by NNOS adhesion; settings: no peptide: 774 ± 40
# Description: (§1) JX series polypeptides are approximately 30-mers derived from ENOS and NNOS inhibitory polypeptides. B058 series are shorter (6-mers to 15-mers) peptides derived from flanking loops or from shorter segments of inhibitory polypeptides. CAM binding data represents counts from radiolabeled CAM trapped on a membrane by NNOS adhesion. INOS activity was assayed by measuring oxidation of ferrous myoglobin by product NO.
# INOS = INOS (Rattus norvegicus, UniProt Q06518); assay: INOS activity by oxidation of ferrous myoglobin by product NO; type: biochemical; set-up: unit not given here; settings: for INOS Activity 0.1 mg/ml: peptide 0.1 mg/ml, no peptide: 14.9 ± .56; for INOS activity 0.3 mg/ml: peptide 0.3 mg/ml, no peptide: 12.3 ± .19; for INOS Activity 1.0 mg/ml: peptide 1.0 mg/ml, no peptide: 13.0 ± .23
# Description: as §1
# NOS [1] = assay: Radioligand binding of [3H]-N-nitro-L-arginine to NOS; set-up: scale not given here; settings: ligand 200 pM, 15 minutes at 23° C., mean ± SEM
# Description: (§2) NOS activity measurements were performed using recombinant rat NNOS (purified from overexpressing HEK293 cells), recombinant bovine ENOS (purified from overexpressing E. coli) or native INOS (from immunostimulant-activated rat aortic smooth muscle cells). Activity was determined with 1-20 pmole of NOS using a kinetic 96-well microtiter plate assay based on the kinetics of NADPH consumption (NNOS and ENOS) or Fe^2+-myoglobin oxidation. Radioligand binding was performed after incubation of 1-2 pmole of NOS for 15 minutes at 23° C. with either Bolton-Hunter labelled [125I]-calmodulin (1 nM) or [3H]-N-nitro-L-arginine (200 pM) and the indicated peptides. Values are means ±SEM of triplicate determinations.
# [2] = molecular target: T1, native INOS (from immunostimulant-activated rat aortic smooth muscle cells) (Rattus norvegicus, UniProt Q06518); assay: NOS activity, kinetic 96-well microtiter plate assay, Fe2+-myoglobin oxidation; type: biochemical; settings: mean ± SEM, triplicate
# T1 construct: endogenous in cells
# Description: as §2
# recombinant rat NNOS = molecular target: T2, recombinant rat NNOS (Rattus norvegicus, UniProt P29476); assay: NOS activity, kinetic 96-well microtiter plate assay, NADPH consumption; type: biochemical; settings: mean ± SEM, triplicate
# T2 construct: made in house; host or cells: HEK293 cells
# Description: as §2
# recombinant bovine ENOS = molecular target: T3, recombinant bovine ENOS (Bos taurus, UniProt P29473); assay: as above; type: biochemical; settings: mean ± SEM, triplicate
# T3 construct: made in house; host or cells: E. coli
# T3 sequence (P29473 1-1205): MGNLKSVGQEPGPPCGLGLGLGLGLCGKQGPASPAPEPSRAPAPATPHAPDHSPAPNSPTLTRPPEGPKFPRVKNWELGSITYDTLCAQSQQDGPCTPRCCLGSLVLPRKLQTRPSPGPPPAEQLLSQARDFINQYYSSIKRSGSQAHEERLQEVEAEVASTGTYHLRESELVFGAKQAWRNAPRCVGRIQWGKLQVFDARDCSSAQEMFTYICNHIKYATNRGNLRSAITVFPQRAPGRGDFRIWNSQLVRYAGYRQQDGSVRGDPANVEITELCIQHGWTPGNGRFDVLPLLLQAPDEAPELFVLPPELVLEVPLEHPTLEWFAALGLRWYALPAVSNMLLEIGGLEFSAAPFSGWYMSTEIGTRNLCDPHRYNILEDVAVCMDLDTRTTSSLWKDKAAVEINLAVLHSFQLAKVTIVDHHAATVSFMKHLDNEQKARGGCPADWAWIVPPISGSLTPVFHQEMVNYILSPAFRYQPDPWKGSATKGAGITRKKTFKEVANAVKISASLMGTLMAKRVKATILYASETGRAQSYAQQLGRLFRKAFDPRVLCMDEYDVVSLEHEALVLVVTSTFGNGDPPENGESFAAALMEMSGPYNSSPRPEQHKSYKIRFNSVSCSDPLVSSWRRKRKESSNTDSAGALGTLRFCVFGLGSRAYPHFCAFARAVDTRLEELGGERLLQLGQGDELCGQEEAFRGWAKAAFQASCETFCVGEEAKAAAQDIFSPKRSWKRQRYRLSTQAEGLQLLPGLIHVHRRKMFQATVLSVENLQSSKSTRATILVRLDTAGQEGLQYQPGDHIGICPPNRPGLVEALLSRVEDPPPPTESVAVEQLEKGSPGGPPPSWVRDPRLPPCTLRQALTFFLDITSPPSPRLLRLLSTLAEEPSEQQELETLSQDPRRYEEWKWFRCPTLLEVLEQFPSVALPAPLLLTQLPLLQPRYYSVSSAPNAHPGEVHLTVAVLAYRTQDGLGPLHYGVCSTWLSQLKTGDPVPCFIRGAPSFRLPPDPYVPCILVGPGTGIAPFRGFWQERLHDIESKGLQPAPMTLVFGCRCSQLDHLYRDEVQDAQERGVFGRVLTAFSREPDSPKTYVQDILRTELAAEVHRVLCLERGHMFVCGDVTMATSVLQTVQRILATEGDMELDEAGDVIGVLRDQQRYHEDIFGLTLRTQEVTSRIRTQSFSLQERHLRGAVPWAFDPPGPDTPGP
# Description: as §2
# NOS [3] = assay: Radioligand binding of [125I]-calmodulin to NOS; set-up: scale not given here; settings: ligand 1 nM, 15 minutes at 23° C., mean ± SEM
# Description: as §2
# T2 sequence (P29476 whole entry): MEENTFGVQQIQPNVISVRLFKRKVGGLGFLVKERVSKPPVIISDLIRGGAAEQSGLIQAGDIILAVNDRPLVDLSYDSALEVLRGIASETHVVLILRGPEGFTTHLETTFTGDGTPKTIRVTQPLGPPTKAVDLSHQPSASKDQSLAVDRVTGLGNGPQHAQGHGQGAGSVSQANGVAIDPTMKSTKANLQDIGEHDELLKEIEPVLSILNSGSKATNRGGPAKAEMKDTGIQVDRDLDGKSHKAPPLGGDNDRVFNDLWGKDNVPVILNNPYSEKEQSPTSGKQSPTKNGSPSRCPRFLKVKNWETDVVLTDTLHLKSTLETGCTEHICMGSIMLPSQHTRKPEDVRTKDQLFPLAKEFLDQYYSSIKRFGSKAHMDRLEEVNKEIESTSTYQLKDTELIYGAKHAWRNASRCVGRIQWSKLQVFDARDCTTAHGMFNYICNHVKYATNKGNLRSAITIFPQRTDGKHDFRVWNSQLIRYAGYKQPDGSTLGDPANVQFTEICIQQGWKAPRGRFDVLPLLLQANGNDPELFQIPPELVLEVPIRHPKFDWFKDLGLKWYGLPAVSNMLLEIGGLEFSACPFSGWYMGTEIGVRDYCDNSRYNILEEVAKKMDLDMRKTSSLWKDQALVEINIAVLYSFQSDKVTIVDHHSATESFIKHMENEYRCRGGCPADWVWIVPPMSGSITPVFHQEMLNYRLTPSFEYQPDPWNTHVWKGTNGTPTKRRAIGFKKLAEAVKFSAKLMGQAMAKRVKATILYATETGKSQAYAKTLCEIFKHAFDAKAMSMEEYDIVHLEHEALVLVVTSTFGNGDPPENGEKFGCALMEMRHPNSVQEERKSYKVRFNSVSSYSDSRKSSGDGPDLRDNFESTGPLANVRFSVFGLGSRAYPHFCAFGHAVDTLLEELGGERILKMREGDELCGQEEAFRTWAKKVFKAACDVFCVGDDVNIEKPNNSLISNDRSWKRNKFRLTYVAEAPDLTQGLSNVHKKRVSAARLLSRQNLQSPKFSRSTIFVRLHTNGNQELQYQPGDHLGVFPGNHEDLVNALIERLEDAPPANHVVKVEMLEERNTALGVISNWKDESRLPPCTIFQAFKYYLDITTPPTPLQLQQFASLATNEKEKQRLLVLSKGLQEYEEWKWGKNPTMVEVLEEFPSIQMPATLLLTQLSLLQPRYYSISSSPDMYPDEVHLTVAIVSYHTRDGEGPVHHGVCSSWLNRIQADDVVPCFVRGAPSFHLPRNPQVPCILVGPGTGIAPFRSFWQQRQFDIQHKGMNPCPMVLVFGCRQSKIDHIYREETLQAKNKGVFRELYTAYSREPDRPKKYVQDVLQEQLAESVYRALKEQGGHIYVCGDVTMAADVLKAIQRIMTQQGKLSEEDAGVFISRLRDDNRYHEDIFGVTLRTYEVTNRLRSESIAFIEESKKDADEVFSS
# NNOS, sequence (P29476 whole entry): as above
Substance,NNOS CAM Binding (NNOS) [counts],INOS Activity 0.1 mg/ml (INOS),INOS activity 0.3 mg/ml (INOS),Ligand binding to NOS [3H]-NHA (NOS [1]; peptide 100 μg/ml),NOS Activity (% of control) INOS ([2]; peptide 100 μg/ml),NOS Activity (% of control) NNOS (recombinant rat NNOS; peptide 100 μg/ml),NOS Activity (% of control) ENOS (recombinant bovine ENOS; peptide 100 μg/ml),Ligand binding to NOS [125I]-CAM (NOS [3]; peptide 100 μg/ml),Ligand binding to NOS [3H]-NHA (NOS [1]; peptide 300 μg/ml),NOS Activity (% of control) INOS ([2]; peptide 300 μg/ml),NOS Activity (% of control) NNOS (recombinant rat NNOS; peptide 300 μg/ml),NOS Activity (% of control) ENOS (recombinant bovine ENOS; peptide 300 μg/ml),INOS Activity 1.0 mg/ml (INOS),Ligand binding to NOS [125I]-CAM (NOS [3]; peptide 300 μg/ml)
"AVDTLLEELGGERT [BO58-02, 22]",953 ± 80,15.1 ± .03,,,,,,,,,,,,
"AVDTRLEELGGERT [BO58-01, 35]",986 ± 58,15.0 ± .73,,,,,,,,,,,,
"DDVVSLEHET [BO58-04, 24]",903 ± 57,15.8 ± .73,14.9 ± .56,,,,,,,,,,,
"DIDQKLSHLGASQT [BO58-03, 23]",863 ± 19,14.4 ± .27,,,,,,,,,,,,
"DIVHLEHES [BO58-05, 25]",952 ± 52,14.6 ± .03,,,,,,,,,,,,
"KASTLEEEQ [BO58-06, 26]",951 ± 100,15.3 ± .32,,,,,,,,,,,,
"WRRKRK [BO58-07, 12]",1749 ± 40,13.6 ± .31,,91.7 ± 5.1,91.1 ± 5.7 % of control,11.0 ± 3.3 % of control,24.0 ± 2.8 % of control,6.7 ± 3.6,,,,,,

# Next, values leading:
NNOS CAM Binding (NNOS) [counts],INOS Activity 0.1 mg/ml (INOS),INOS activity 0.3 mg/ml (INOS),Ligand binding to NOS [3H]-NHA (NOS [1]; peptide 100 μg/ml),NOS Activity (% of control) INOS ([2]; peptide 100 μg/ml),NOS Activity (% of control) NNOS (recombinant rat NNOS; peptide 100 μg/ml),NOS Activity (% of control) ENOS (recombinant bovine ENOS; peptide 100 μg/ml),Ligand binding to NOS [125I]-CAM (NOS [3]; peptide 100 μg/ml),Ligand binding to NOS [3H]-NHA (NOS [1]; peptide 300 μg/ml),NOS Activity (% of control) INOS ([2]; peptide 300 μg/ml),NOS Activity (% of control) NNOS (recombinant rat NNOS; peptide 300 μg/ml),NOS Activity (% of control) ENOS (recombinant bovine ENOS; peptide 300 μg/ml),INOS Activity 1.0 mg/ml (INOS),Ligand binding to NOS [125I]-CAM (NOS [3]; peptide 300 μg/ml),Substance
686 ± 43,14.7 ± .28,,118.9 ± 4.1,101.1 ± 3.7 % of control,102.0 ± 2.1 % of control,93.6 ± 2.3 % of control,82.7 ± 1.1,,,,,,,"QEERKSYKVRF [BO58-09, 16]"
659 ± 41,14.1 ± .57,10.4 ± .57,,,,,,95.7 ± 4.7,84.1 ± 3.5 % of control,103.0 ± 1.3 % of control,80.2 ± 3.8 % of control,8.4 ± .57,82.7 ± 1.1,"QEERKSYKVRFNSVSSYSDSQKSSGDGPDL [JX4, 19]"
674 ± 100,12.9 ± .32,7.9 ± .11,,,,,,122.4 ± 1.0,64.3 ± 3.2 % of control,28.2 ± 0.9 % of control,40.2 ± 4.0 % of control,2.9 ± .32,0.0 ± 4.8,"QHKSYKIRFNSVSCSDPLVSSWRRKRKE [JX3, 15]"
1339 ± 49,14.6 ± .02,,115.0 ± 8.6,99.7 ± 5.7 % of control,54.5 ± 1.8 % of control,80.5 ± 2.0 % of control,24.7 ± 2.2,,,,,,,"RPEQHKSYKIRF [BO58-10, 17]"
908 ± 56,14.7 ± .94,,119.2 ± 3.4,99.7 ± 2.8 % of control,98.4 ± 1.9 % of control,102.6 ± 4.1 % of control,89.2 ± 6.2,,,,,,,"SDSRKSSGDGPDLR [BO58-11, 18]"
1356 ± 46,13.1 ± .11,7.7 ± .11,,,,,,116.3 ± 1.9,62.2 ± 2.8 % of control,30.4 ± 1.7 % of control,57.2 ± 7.5 % of control,3.2 ± .11,0.0 ± 7.4,"SSPRPEQHKSYKIRFNSVSCSDPLVSSWRRKRKESS [JX2, 14]"
